{"source": "IntAct's records for PubMed 33990585", "parents": {"B1": {"name": "Mitochondrial import receptor subunit TOM70 (Homo sapiens), O94826 (parent)", "chain": "MAASKPVEAAVVAAAVPSSGSGVGGGGTAGPGTGGLPRWQLALAVGAPLLLGAGAIYLWSRQQRRREARGRGDASGLKRNSERKTPEGRASPAPGSGHPEGPGAHLDMNSLDRAQAAKNKGNKYFKAGKYEQAIQCYTEAISLCPTEKNVDLSTFYQNRAAAFEQLQKWKEVAQDCTKAVELNPKYVKALFRRAKAHEKLDNKKECLEDVTAVCILEGFQNQQSMLLADKVLKLLGKEKAKEKYKNREPLMPSPQFIKSYFSSFTDDIISQPMLKGEKSDEDKDKEGEALEVKENSGYLKAKQYMEEENYDKIISECSKEIDAEGKYMAEALLLRATFYLLIGNANAAKPDLDKVISLKEANVKLRANALIKRGSMYMQQQQPLLSTQDFNMAADIDPQNADVYHHRGQLKILLDQVEEAVADFDECIRLRPESALAQAQKCFALYRQAYTGNNSSQIQAAMKGFEEVIKKFPRCAEGYALYAQALTDQQQFGKADEMYDKCIDLEPDNATTYVHKGLLQLQWKQDLDRGLELISKAIEIDNKCDFAYETMGTIEVQRGNMEKAIDMFNKAINLAKSEMEMAHLYSLCDAAHAQTEVAKKYGLKPPTL"}}, "data": [{"variants_of": "B1", "conditions": "with orf9b_sars2 orf9b", "values": [{"variant": "H583Q", "effect of a mutation on the interaction": "with no effect"}, {"variant": "E549I", "effect of a mutation on the interaction": "decreasing interaction strength"}, {"variant": "E549A", "effect of a mutation on the interaction": "decreasing interaction strength"}, {"variant": "D545A", "effect of a mutation on the interaction": "decreasing interaction strength"}, {"variant": "E477A", "effect of a mutation on the interaction": "decreasing interaction strength"}]}]}
